The source of these data is US20230357348A1 (AstraZeneca / MedImmune, published 2023).

Starred links: 1 amine or outer side, 2 acyl side, 3 side chain; linkers in the order of their positions; H or OH if unused. Non-standard residues stand in square brackets, D forms with d. Groups on a side chain read outwards from the residue. No end group written: not given here. *: point of attachment. β‑dimethylGln = β-dimethylglutamine, CC(C)(CC(N)=O)[C@H](N[*:1])C(=O)[*:2]; C20 diacid = O=C(O)CCCCCCCCCCCCCCCCCCC(=O)*; C18 diacid = O=C(O)CCCCCCCCCCCCCCCCC(=O)*; γGlu = O=C(O)[C@H](CCC(=O)[*:2])N[*:1]; αMeF = C[C@](N)(Cc1ccccc1)C(=O)O; AEEA = NCCOCCOCC(=O)O; Aib = CC(C)(N)C(=O)O Where only a bound is given, the exact number is not on record here.

One assay deals with human GLP-1 receptor (human, UniProt P43220 24-463). The assay can be described thus: cell-based or functional assay.
A further assay deals with human glucagon receptor (human, UniProt P47871 26-477). The assay can be described thus: cell-based or functional assay.
Chain of human glucagon receptor (P47871 26-477): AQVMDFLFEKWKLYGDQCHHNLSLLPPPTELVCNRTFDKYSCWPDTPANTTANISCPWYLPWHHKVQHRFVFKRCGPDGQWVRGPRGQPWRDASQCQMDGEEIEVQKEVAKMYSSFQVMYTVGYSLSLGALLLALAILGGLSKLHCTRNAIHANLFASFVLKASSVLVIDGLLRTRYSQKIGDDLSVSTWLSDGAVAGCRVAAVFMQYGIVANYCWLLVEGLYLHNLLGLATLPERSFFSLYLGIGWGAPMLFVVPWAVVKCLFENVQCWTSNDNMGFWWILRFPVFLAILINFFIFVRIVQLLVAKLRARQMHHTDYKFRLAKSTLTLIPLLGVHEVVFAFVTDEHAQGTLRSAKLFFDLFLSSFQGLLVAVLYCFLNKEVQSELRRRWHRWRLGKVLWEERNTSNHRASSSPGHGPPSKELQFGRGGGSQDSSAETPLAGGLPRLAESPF

HSHGS[αMeF]TSDVSK[αMeF]LDSRAAK([AEEA-AEEA-γGlu-C18 diacid])D[αMeF]VQ[Aib]IANT-NH2 (not fully specified; also: S2: Aib per table) [Peptide 285]: in the assay with human GLP-1 receptor, the “hGLP-1R EC50 (pM), cAMP” value amounted to 301 pM. Besides, the “hGluc-R EC50 (pM), cAMP” value in the assay with human glucagon receptor was 87 pM.

B1: Peptide 298 (peptide)
peptide: H[Aib]HGS[αMeF]TSDVSR[αMeF]LDSRAAK([AEEA-AEEA-γGlu-γGlu-C20 diacid])D[αMeF]VQ[Aib]IANT-NH2
modifications: N-terminus assumed
SMILES: CC[C@H](C)[C@H](NC(=O)C(C)(C)NC(=O)[C@H](CCC(N)=O)NC(=O)[C@@H](NC(=O)[C@](C)(Cc1ccccc1)NC(=O)[C@H](CC(=O)O)NC(=O)[C@H](CCCCNC(=O)COCCOCCNC(=O)COCCOCCNC(=O)CC[C@H](NC(=O)CC[C@H](NC(=O)CCCCCCCCCCCCCCCCCCC(=O)O)C(=O)O)C(=O)O)NC(=O)[C@H](C)NC(=O)[C@H](C)NC(=O)[C@H](CCCNC(=N)N)NC(=O)[C@H](CO)NC(=O)[C@H](CC(=O)O)NC(=O)[C@H](CC(C)C)NC(=O)[C@](C)(Cc1ccccc1)NC(=O)[C@H](CCCNC(=N)N)NC(=O)[C@H](CO)NC(=O)[C@@H](NC(=O)[C@H](CC(=O)O)NC(=O)[C@H](CO)NC(=O)[C@@H](NC(=O)[C@](C)(Cc1ccccc1)NC(=O)[C@H](CO)NC(=O)CNC(=O)[C@H](Cc1c[nH]cn1)NC(=O)C(C)(C)NC(=O)[C@@H](N)Cc1c[nH]cn1)[C@@H](C)O)C(C)C)C(C)C)C(=O)N[C@@H](C)C(=O)N[C@@H](CC(N)=O)C(=O)N[C@H](C(N)=O)[C@@H](C)O
For the molecule B1, the “hGLP-1R EC50 (pM), cAMP” value in the assay with human GLP-1 receptor is 75.5 pM. The “hGluc-R EC50 (pM), cAMP” value with human glucagon receptor was 573 pM.
Taken in the same sequence, the figures for H[Aib]HGS[αMeF]TSDVSKYLDSRAAK([AEEA-AEEA-γGlu-C18 diacid])D[αMeF]VQ[Aib]IANT-NH2 (also: F6: αMePhe per table, X13: αMePhe, Y per table) [Peptide 286] were 31.6 pM and 53 pM.
Regarding H[Aib]HGS[αMeF]TSDVSK[αMeF]LDSRAAK([AEEA-AEEA-γGlu-C18 diacid])DFVQ[Aib]IANT-NH2 (not fully specified; also: Y13: αMePhe per table) [Peptide 287], in the assay with human GLP-1 receptor, the “hGLP-1R EC50 (pM), cAMP” value was found to be 27.5 pM. Besides, the “hGluc-R EC50 (pM), cAMP” value in the assay with human glucagon receptor came to 26.5 pM.
For H[Aib]HGS[αMeF]TSDVSK[αMeF]LDSRAAK([AEEA-AEEA-γGlu-γGlu-C20 diacid])D[αMeF]IA[Aib]IAET-NH2 [Peptide 302], the “hGLP-1R EC50 (pM), cAMP” value with human GLP-1 receptor is 151 pM. Moreover, in the assay with human glucagon receptor, the “hGluc-R EC50 (pM), cAMP” value was 271 pM.
On to H[Aib]QGTFTSDVSK[αMeF]LDSRAAK([AEEA-AEEA-γGlu-C18 diacid])DFVQWIANT-NH2 (not fully specified) [Peptide 318], for which, in the assay with human GLP-1 receptor, the “hGLP-1R EC50 (pM), cAMP” value was found to be 55.2 pM. Besides, in the assay with human glucagon receptor, the “hGluc-R EC50 (pM), cAMP” value came out at 12000 pM.
For H[Aib]QGTFTSDVSK[αMeF]LDSRAAK([AEEA-AEEA-γGlu-C18 diacid])DFVQ[Aib]LVAT-NH2 (not fully specified) [Peptide 315], the “hGLP-1R EC50 (pM), cAMP” value with human GLP-1 receptor came out at 18.1 pM. Further, in the assay with human glucagon receptor, the “hGluc-R EC50 (pM), cAMP” value amounted to 5850 pM.
The like results for H[Aib]HGS[αMeF]TSDVSK[αMeF]LDSRAAK([AEEA-AEEA-γGlu-C18 diacid])D[αMeF]VQWIANT-NH2 (not fully specified; also: F22: αMePhe per table) [Peptide 288] were, in that order, 42.7 pM and 26.9 pM.
For H[Aib]HGS[αMeF]TSDVSK[αMeF]LDSRAAK([AEEA-AEEA-γGlu-γGlu-C20 diacid])D[αMeF]VQ[Aib]IANT-OH [Peptide 304], the “hGLP-1R EC50 (pM), cAMP” value with human GLP-1 receptor was 239 pM. For the same molecule, the “hGluc-R EC50 (pM), cAMP” value with human glucagon receptor is 687 pM.

B2: Peptide 300 (peptide)
peptide: H[Aib]HGS[αMeF]TSDVSK[αMeF]LDSRAAK([AEEA-AEEA-γGlu-C18 diacid])D[αMeF]VQ[Aib]IAET-NH2
modifications: N-terminus assumed
SMILES: CC[C@H](C)[C@H](NC(=O)C(C)(C)NC(=O)[C@H](CCC(N)=O)NC(=O)[C@@H](NC(=O)[C@](C)(Cc1ccccc1)NC(=O)[C@H](CC(=O)O)NC(=O)[C@H](CCCCNC(=O)COCCOCCNC(=O)COCCOCCNC(=O)CC[C@H](NC(=O)CCCCCCCCCCCCCCCCC(=O)O)C(=O)O)NC(=O)[C@H](C)NC(=O)[C@H](C)NC(=O)[C@H](CCCNC(=N)N)NC(=O)[C@H](CO)NC(=O)[C@H](CC(=O)O)NC(=O)[C@H](CC(C)C)NC(=O)[C@](C)(Cc1ccccc1)NC(=O)[C@H](CCCCN)NC(=O)[C@H](CO)NC(=O)[C@@H](NC(=O)[C@H](CC(=O)O)NC(=O)[C@H](CO)NC(=O)[C@@H](NC(=O)[C@](C)(Cc1ccccc1)NC(=O)[C@H](CO)NC(=O)CNC(=O)[C@H](Cc1c[nH]cn1)NC(=O)C(C)(C)NC(=O)[C@@H](N)Cc1c[nH]cn1)[C@@H](C)O)C(C)C)C(C)C)C(=O)N[C@@H](C)C(=O)N[C@@H](CCC(=O)O)C(=O)N[C@H](C(N)=O)[C@@H](C)O
As for B2, in the assay with human GLP-1 receptor, the “hGLP-1R EC50 (pM), cAMP” value was 19.7 pM. In addition, the “hGluc-R EC50 (pM), cAMP” value with human glucagon receptor is 18.4 pM.
Take H[Aib]HGS[αMeF]TSDVSK[αMeF]LDSRAAK([AEEA-AEEA-γGlu-γGlu-C20 diacid])D[αMeF]VQ[Aib]IANT-NH2 (not fully specified) [Peptide 305]: the “hGLP-1R EC50 (pM), cAMP” value in the assay with human GLP-1 receptor stood at 211 pM. Also, the “hGluc-R EC50 (pM), cAMP” value with human glucagon receptor is 155 pM.
As for H[Aib]HGS[αMeF]TSDVSKYLDSRAAKDFVQWIANT-NH2 (not fully specified (residue 20); also: F6: αMePhe per table) [Peptide 292], the “hGLP-1R EC50 (pM), cAMP” value in the assay with human GLP-1 receptor came out at 28.7 pM. Moreover, the “hGluc-R EC50 (pM), cAMP” value in the assay with human glucagon receptor was found to be 20.4 pM.
H[Aib]QGS[αMeF]TSDVSK[αMeF]LDSRAAK([AEEA-AEEA-γGlu-γGlu-C20 diacid])D[αMeF]VQ[Aib]IANT-NH2 [Peptide 322]: the “hGLP-1R EC50 (pM), cAMP” value with human GLP-1 receptor was determined as 68.3 pM. In addition, in the assay with human glucagon receptor, the “hGluc-R EC50 (pM), cAMP” value is over 24700 pM.

B3: Peptide 296 (peptide)
peptide: H[Aib]HGS[αMeF]TSDVSK[Aib]LDSRAAK([AEEA-AEEA-γGlu-C18 diacid])D[αMeF]VQ[Aib]IANT-NH2
modifications: N-terminus assumed
SMILES: CC[C@H](C)[C@H](NC(=O)C(C)(C)NC(=O)[C@H](CCC(N)=O)NC(=O)[C@@H](NC(=O)[C@](C)(Cc1ccccc1)NC(=O)[C@H](CC(=O)O)NC(=O)[C@H](CCCCNC(=O)COCCOCCNC(=O)COCCOCCNC(=O)CC[C@H](NC(=O)CCCCCCCCCCCCCCCCC(=O)O)C(=O)O)NC(=O)[C@H](C)NC(=O)[C@H](C)NC(=O)[C@H](CCCNC(=N)N)NC(=O)[C@H](CO)NC(=O)[C@H](CC(=O)O)NC(=O)[C@H](CC(C)C)NC(=O)C(C)(C)NC(=O)[C@H](CCCCN)NC(=O)[C@H](CO)NC(=O)[C@@H](NC(=O)[C@H](CC(=O)O)NC(=O)[C@H](CO)NC(=O)[C@@H](NC(=O)[C@](C)(Cc1ccccc1)NC(=O)[C@H](CO)NC(=O)CNC(=O)[C@H](Cc1c[nH]cn1)NC(=O)C(C)(C)NC(=O)[C@@H](N)Cc1c[nH]cn1)[C@@H](C)O)C(C)C)C(C)C)C(=O)N[C@@H](C)C(=O)N[C@@H](CC(N)=O)C(=O)N[C@H](C(N)=O)[C@@H](C)O
For B3, in the assay with human GLP-1 receptor, the “hGLP-1R EC50 (pM), cAMP” value is 64.1 pM. Moreover, in the assay with human glucagon receptor, the “hGluc-R EC50 (pM), cAMP” value is 3250 pM.

B4: Peptide 324 (peptide)
peptide: HS[β‑dimethylGln]GS[αMeF]TSDVSK[αMeF]LDSRAAK([AEEA-AEEA-γGlu-C18 diacid])D[αMeF]VQ[Aib]IANT-NH2
modifications: N-terminus assumed
SMILES: CC[C@H](C)[C@H](NC(=O)C(C)(C)NC(=O)[C@H](CCC(N)=O)NC(=O)[C@@H](NC(=O)[C@](C)(Cc1ccccc1)NC(=O)[C@H](CC(=O)O)NC(=O)[C@H](CCCCNC(=O)COCCOCCNC(=O)COCCOCCNC(=O)CC[C@H](NC(=O)CCCCCCCCCCCCCCCCC(=O)O)C(=O)O)NC(=O)[C@H](C)NC(=O)[C@H](C)NC(=O)[C@H](CCCNC(=N)N)NC(=O)[C@H](CO)NC(=O)[C@H](CC(=O)O)NC(=O)[C@H](CC(C)C)NC(=O)[C@](C)(Cc1ccccc1)NC(=O)[C@H](CCCCN)NC(=O)[C@H](CO)NC(=O)[C@@H](NC(=O)[C@H](CC(=O)O)NC(=O)[C@H](CO)NC(=O)[C@@H](NC(=O)[C@](C)(Cc1ccccc1)NC(=O)[C@H](CO)NC(=O)CNC(=O)[C@@H](NC(=O)[C@H](CO)NC(=O)[C@@H](N)Cc1c[nH]cn1)C(C)(C)CC(N)=O)[C@@H](C)O)C(C)C)C(C)C)C(=O)N[C@@H](C)C(=O)N[C@@H](CC(N)=O)C(=O)N[C@H](C(N)=O)[C@@H](C)O
Consider B4, for which the “hGLP-1R EC50 (pM), cAMP” value in the assay with human GLP-1 receptor was 1330 pM. Besides, the “hGluc-R EC50 (pM), cAMP” value with human glucagon receptor was 1930 pM.
